Paper PMC5669500, “Scaffolding the cup-shaped double membrane in autophagy” (PLoS Computational Biology, 2017)
Where a chain is given by its changes, count along the chain named.

Tests used:
Experiment in all cases: pull-down; 20 μg GST-Atg13 (351–458) immobilised on 30 μL Glutathione Sepharose 4B; Atg17-Atg31-Atg29 complex at 10 μM; 4°C, 1 hour; 20 mM Tris pH 8, 150 mM NaCl, 0.1 mM TCEP; 3 washes; SDS-PAGE
Details in all cases: both partners purified
[1] = target: T1, Atg17-Atg31-Atg29 complex, wild type (Saccharomyces cerevisiae, UniProt Q06410 1-417; Q12421 1-196; Q12092 1-213)
T1 construct: Atg17, Saccharomyces cerevisiae; Atg31, Saccharomyces cerevisiae; Atg29, Saccharomyces cerevisiae; a TEV cleavage site follows the His6 tag; Atg17 is described as a dimer; cleavage of the His6 tag by TEV is not mentioned; also called recombinant ternary complex; Atg17-Atg31-Atg29 subcomplex of Atg1; source: E. coli BL21 (DE3), co-expressed from pST39, purified (Ni-NTA, Superose 6); copies: 2 + +
T1 sequence (looked up) 1: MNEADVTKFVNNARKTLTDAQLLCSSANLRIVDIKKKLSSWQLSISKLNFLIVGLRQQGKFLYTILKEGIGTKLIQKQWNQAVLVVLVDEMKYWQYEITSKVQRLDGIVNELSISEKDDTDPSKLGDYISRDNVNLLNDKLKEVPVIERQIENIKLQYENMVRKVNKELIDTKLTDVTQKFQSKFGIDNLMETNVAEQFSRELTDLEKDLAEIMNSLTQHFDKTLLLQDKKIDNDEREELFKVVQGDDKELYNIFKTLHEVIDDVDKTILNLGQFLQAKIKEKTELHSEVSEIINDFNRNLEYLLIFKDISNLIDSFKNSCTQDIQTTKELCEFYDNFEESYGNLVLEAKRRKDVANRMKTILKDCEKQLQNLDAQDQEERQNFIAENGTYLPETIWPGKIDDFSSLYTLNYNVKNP
T1 sequence (looked up) 2: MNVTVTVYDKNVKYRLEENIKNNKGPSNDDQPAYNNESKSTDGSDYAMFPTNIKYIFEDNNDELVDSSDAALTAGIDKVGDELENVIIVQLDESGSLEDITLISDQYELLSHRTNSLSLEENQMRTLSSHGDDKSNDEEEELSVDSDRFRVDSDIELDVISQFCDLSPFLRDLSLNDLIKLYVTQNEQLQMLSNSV
T1 sequence (looked up) 3: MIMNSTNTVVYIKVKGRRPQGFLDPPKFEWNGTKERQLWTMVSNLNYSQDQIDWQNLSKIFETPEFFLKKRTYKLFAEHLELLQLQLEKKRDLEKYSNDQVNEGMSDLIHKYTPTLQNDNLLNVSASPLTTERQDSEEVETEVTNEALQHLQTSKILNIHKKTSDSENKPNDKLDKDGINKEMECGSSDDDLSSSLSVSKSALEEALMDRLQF

[2] = target: T2, Atg17-Atg31-Atg29 complex with Atg17 mutant M4 (K164D/K173D/R299D) (Saccharomyces cerevisiae, UniProt Q06410 1-417; Q12421 1-196; Q12092 1-213, K164D | K173D | R299D)
T2 construct: Atg17, Saccharomyces cerevisiae; Atg31, Saccharomyces cerevisiae; Atg29, Saccharomyces cerevisiae; a TEV cleavage site follows the His6 tag; Mutations introduced into the Atg17-Atg31-Atg29 construct by quick-change mutagenesis; source: E. coli BL21 (DE3), co-expressed from pST39, purified (Ni-NTA, Superose 6); copies: 2 + +
T2 sequence (looked up) 1: T1 sequence (looked up) 1 with K164D, K173D, R299D
T2 sequence (looked up) 2: T1 sequence (looked up) 2
T2 sequence (looked up) 3: T1 sequence (looked up) 3

[3] = target: T3, Atg17-Atg31-Atg29 complex with Atg17 mutant M5 (K92D/L141D) (Saccharomyces cerevisiae, UniProt Q06410 1-417; Q12421 1-196; Q12092 1-213, K92D | L141D)
T3 construct: Atg17, Saccharomyces cerevisiae; Atg31, Saccharomyces cerevisiae; Atg29, Saccharomyces cerevisiae; a TEV cleavage site follows the His6 tag; Mutations introduced into the Atg17-Atg31-Atg29 construct by quick-change mutagenesis; source: E. coli BL21 (DE3), co-expressed from pST39, purified (Ni-NTA, Superose 6); copies: 2 + +
T3 sequence (looked up) 1: T1 sequence (looked up) 1 with K92D, L141D
T3 sequence (looked up) 2: T1 sequence (looked up) 2
T3 sequence (looked up) 3: T1 sequence (looked up) 3

Measured: binding result

B1: GST-Atg13 (351–458) (domain or fragment, Saccharomyces cerevisiae, UniProt Q06628 351-458, looked up)
chain: TRANSFEPQSWQKKVYPISRPVQPFKVGSIGSQSASRNPSNSSFFNQPPVHRPSMSSNYGPQMNIEGTSVGSTSKYSSSFGNIRRHSSVKTTENAEKVSKAVKSPLQP
notes: a TEV cleavage site follows the GST tag; source: recombinant from pGST2 vector, purified (Glutathione Sepharose 4B, HiLoad Superdex 200 16/60); not shown: GST, N-terminal, kept
binds: all assays above
